Read-outs that look alike come from different tables or passages of the source.
Key:
[1] = molecular target: TDP-43 C-terminal domain (residues 267-414), wild type (human) (UniProt Q13148); assay: 15N CPMG relaxation dispersion NMR
[2] = molecular target: TDP-43 C-terminal domain (residues 267-414), wild type (human) (UniProt Q13148); assay: 15N CPMG relaxation dispersion NMR; remark: listed apart in the source
[3] = molecular target: TDP-43 C-terminal domain (residues 267-414) M337V (human) (UniProt Q13148)

kex (kon + koff, global exchange rate) [1] [s⁻¹]	koff [1] [s⁻¹]	kex (kon + koff, global exchange rate) [2] [s⁻¹]	koff [2] [s⁻¹]	decrease of turbidity of 20 µM CTD in 150 mM NaCl against wild type [3] [%]	Substance
1200	1100	1000	970		TDP-43 C-terminal domain (residues 267-414), wild type (from UniProt Q13148 267-414) (domain or fragment)
				50	TDP-43 C-terminal domain (residues 267-414) M337V (from UniProt Q13148 267-414) (domain or fragment)

Source: PMC5014597
